Data from PMC3017776, “Coordinated transcriptional regulation of two key genes in the lignin branch pathway - CAD and CCR - is mediated through MYB- binding sites”.

B1: EgCAD2 [-203/-129] mutated MYBa (dsDNA)
DNA 1: TGGGAATGGCTAAAAAGCAAGTCTTGACCCTTAACCCACCCCACTGGTTCAGTCGACGCACCTCTGGTTAGGTATTGCTTGCTGAG
DNA 2: CTCAGCAAGCAATACCTAACCAGAGGTGCGTCGACTGAACCAGTGGGGTGGGTTAAGGGTCAAGACTTGCTTTTTAGCCATTCCCA
B2: EgCAD2 [-203/-129] mutated MYBa + MYBb (dsDNA)
DNA 1: TGGGAATGGCTAAAAAGCAAGTCTTGACCCTTAACCCACCCCACTGGTTCAGTCGACGCACCTCTGAGATCTTATTGCTTGCTGAG
DNA 2: CTCAGCAAGCAATAAGATCTCAGAGGTGCGTCGACTGAACCAGTGGGGTGGGTTAAGGGTCAAGACTTGCTTTTTAGCCATTCCCA
B3: EgCCR [-119/-70] mutated MYB (dsDNA)
DNA 1: CCTTATAGGGGAGCGGGTCATTTCATGCGGTTCTAGAGTCTTGGTAAACATTGTC
DNA 2: GACAATGTTTACCAAGACTCTAGAACCGCATGAAATGACCCGCTCCCCTATAAGG
B4: EgCAD2 [-203/-129] mutated MYBb (dsDNA)
DNA 1: TGGGAATGGCTAAAAAGCAAGTCTTGACCCTTAACCCACCCCACTGGTTCACCTACCGCACCTCTGAGATCTTATTGCTTGCTGAG
DNA 2: CTCAGCAAGCAATAAGATCTCAGAGGTGCGGTAGGTGAACCAGTGGGGTGGGTTAAGGGTCAAGACTTGCTTTTTAGCCATTCCCA

These binders were tested against EgMYB2 (R2R3 MYB factor) (UniProt Q70KC5 1-321) (assay: EMSA; EMSA: 25 mM Tris-HCl pH 8, 250 mM NaCl, 10% glycerol, 7 mM beta-mercaptoethanol, 2 ug poly(dIdC), 25 ul, 30 min, room temperature; 0.125 ug EgMYB2; 4.8% PAGE in 0.5x TBE, 2.5% glycerol). Settings: protein: recombinant; tags: GST (N-terminal, pGEX-5X-1); label: 32P; blunt.
Sequence of EgMYB2 (R2R3 MYB factor) (Q70KC5 entry or part of it): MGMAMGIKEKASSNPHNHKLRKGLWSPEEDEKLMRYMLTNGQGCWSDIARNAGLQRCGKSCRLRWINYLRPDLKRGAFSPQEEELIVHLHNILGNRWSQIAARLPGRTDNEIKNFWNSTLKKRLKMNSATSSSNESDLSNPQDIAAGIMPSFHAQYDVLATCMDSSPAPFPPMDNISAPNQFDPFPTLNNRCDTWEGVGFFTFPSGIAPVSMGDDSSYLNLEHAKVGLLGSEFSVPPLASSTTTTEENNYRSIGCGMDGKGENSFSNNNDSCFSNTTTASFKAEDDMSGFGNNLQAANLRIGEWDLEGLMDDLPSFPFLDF

**Q.** Does B1 bind?
**A.** no binding

**Q.** Does B2 bind?
**A.** no binding

**Q.** Does B3 bind?
**A.** no binding

**Q.** Does B4 bind?
**A.** no binding
